In this assay the target is T1, His-tagged C. albicans TATA box Binding Protein (TBP) (C. albicans, UniProt O43133 1-238).
T1 construct: Vector pET28a; fusion protein said to be 30 kDa; also called TBP1; TBP-pET28a; source: E. coli BL21 (DE3), purified (Ni-NTA)
T1 sequence: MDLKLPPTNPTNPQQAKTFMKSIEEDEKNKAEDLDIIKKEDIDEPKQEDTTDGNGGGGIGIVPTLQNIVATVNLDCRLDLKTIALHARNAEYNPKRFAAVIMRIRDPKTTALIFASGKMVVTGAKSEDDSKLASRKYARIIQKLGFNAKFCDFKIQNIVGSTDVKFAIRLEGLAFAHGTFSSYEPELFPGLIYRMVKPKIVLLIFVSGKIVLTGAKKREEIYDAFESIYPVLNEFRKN
Put plainly: pull-down; GST-AAD and His-TBP incubated with Glutathione Sepharose 4B beads, 3 h, 4 C, 20 mM HEPES pH 7.5, 200 mM NaCl, 0.1 mM EDTA, 10% glycerol, 0.1% NP-40; washes with 500 mM NaCl; eluted with 10 mM reduced glutathione; immunoblot with anti-GST and anti-His. To be noted: both partners purified. Background: A western blot detects proteins with antibodies after separation by electrophoresis.

B1: GST-tagged Acidic Activation Domain (AAD) of Tac1p (domain or fragment)
chain: MNPSPTITNNTYNSNINTGSNSTGEPQVCYAQSPSYNASLSNIINNESTGRSPATSTSINQSMMNENYDLFNDYLIDNSAVNLPFSQFNNLPNFFFDNNLGI
notes: amplified from genomic DNA of strain SC5314; Vector pGEX-KG; fusion protein said to be 33 kDa; several closely spaced bands (degradation) on the anti-GST blot; The introduction gives other limits for the AAD (nucleotides 1354-2946); also called Tac1-AAD; TAC1-AAD; source: E. coli BL21 (DE3), purified (Glutathione Sepharose 4B)
In the case of B1, the binding result is “binds”.

The values are drawn from article PMC10370356, “Molecular dissection studies of TAC1, a transcription activator of Candida drug resistance genes of the human pathogenic fungus Candida albicans” (Frontiers in Microbiology, 2023).
